Source: patent US8835136B2, “Engineered amine dehydrogenases and methods of use thereof” (Georgia Tech Research Corporation, priority 2012, dated 2014)

Key:
Assay type in all cases: biochemical
[1] = Reductive amination of PFPA, spectrophotometric assay at 340 nm; conditions: 500 mM NH4Cl/NH4OH pH 9.6, 200 μM NADH; for kcat, amination of PFPA: apparent; for Km: read-out: KM, amination of PFPA
Description: (§1) Activity of purified proteins was measured using a spectrophotometric assay at 340 nm, corresponding to the cofactor nicotinamide adenine dinucleotide (NADH, ε340=6220 M^−1 cm^−1) (Dawson, et al., Clarendon Press, (1989). For reductive amination, reactions took place in 500 mM NH4Cl/NH4OH at pH 9.6, with 200 μM NADH and 20 mM of the ketone substrate, unless otherwise specified. For oxidative deamination, reactions took place in 0.1 M NaHCO3/Na2CO3 buffer at pH 10.0, with 1 mM NAD+ with 10 mM of the amine substrate of interest. All reactions were performed at 25° C. unless otherwise specified. Enzyme was added in 10 μL aliquots in dilute concentrations. Enzyme concentrations varied upon activity levels with the substrate present, but were dilute enough to ensure linear conversion kinetics over the analytical time period (10 min to 30 min). Specific activities were then calculated from the stoichiometric conversion of cofactor as determine by the change in absorbance at 340 nm over time.
The activity of the purified protein was evaluated using a spectrophotometric assay at 340 nm as described in Section 3.2.3 at 25° C. in various concentrations of NH4Cl/NH4OH buffer pH 9.6.
Active variants were identified by the rate of change in absorbance at 340 nm, corresponding to the fastest activity. […] Some variants consumed the cofactor too quickly (<5 min) to be observed over multiple time points, and gave low absorbance in the initial time point. These variants were included for further characterization. The successful variants were sequenced (MWG Operon), and each unique sequence was expressed in pET28a/BL21 for histag purification and determination of kcat and KM values with PFPA.

[2] = Oxidative deamination, spectrophotometric assay at 340 nm; conditions: for Deamination Activity 40 mM 1,3-DMBA, kcat: 0.1M Glycine pH 10.0, 1 mM NAD+, 25° C.; for Oxidative deamination specific activity: maximum specific activity, 1,3-DMBA
Description: as §1, with “For oxidative deamination, reactions took place in 0.1 M NaHCO3/Na2CO3 buffer at pH 10.0, with 1 mM NAD+ with 10 mM of the amine substrate of interest.” left out

[3] = Reductive amination, spectrophotometric assay at 340 nm; conditions: for Amination Activity 40 mM MIBK, kcat: 500 mM NH4Cl/NH4OH pH 9.6, 200 μM NADH, 25° C.; for Reductive amination specific activity: maximum specific activity, nonlinear fit
Description: as §1

[4] = Oxidative deamination, spectrophotometric assay at 340 nm; conditions: 20 mM substrate
Description: as §1, with “For oxidative deamination, reactions took place in 0.1 M NaHCO3/Na2CO3 buffer at pH 10.0, with 1 mM NAD+ with 10 mM of the amine substrate of interest.” left out
The enantioselectivity was initially estimated by measuring the deamination activity toward individual enantiomers of methylbenzylamine (MBA). […] A preference towards (R)-MBA over the corresponding (S)-enantiomer was evident in the discrepancies between the deamination activities of 0.586 U mg^−1 and 0.002 U mg^−1, respectively. These preliminary results were corroborated through direct measurement of the enantioselectivity of the MIBK amination in producing chiral 1,3-DMBA.

[5] = 1,3-DMBA substrate, read-out: KM (oxidative deamination)
[6] = purified LeuDH library 10/11 hits
[7] = purified LeuDH library 10/11 hits, read-out: Deamination of 1,3-DMBA KM
[8] = MIBK substrate, read-out: KM (reductive amination)
[9] = purified LeuDH library 10/11 hits, read-out: Amination of MIBK KM

B1: K77W N276E: PheDH-AmDH double variant, SEQ ID NO:3; PheDH library 1 hit 7F10 (protein)
chain: SLVEKTSIIKDFTLFEKMSEHEQVVFCNDPATGLRAIIAIHDTTLGPALGGCRMQPYNSVEEALEDALRLSKGMTYWCAASDVDFGGGKAVIIGDPQKDKSPELFRAFGQFVDSLGGRFYTGTDMGTNMEDFIHAMKETNCIVGVPEAYGGGGDSSIPTAMGVLYGIKATNKMLFGKDDLGGVTYAIQGLGKVGYKVAEGLLEEGAHLFVTDINEQTLEAIQEKAKTTSGSVTVVASDEIYSQEADVFVPCAFGGVVNDETMKQFKVKAIAGSANEQLLTEDHGRHLADKGILYAPDYIVNSGGLIQVADELYEVNKERVLAKTKHIYDAILEVYQQAELDQITTMEAANRMCEQRMAARGRRNSFFTSSVKPKWDIRN
kcat, amination of PFPA [1]: 2.63 s⁻¹ | kcat, amination of PFPA ([1]; listed as 7F10): 2.631 ± 0.159 s⁻¹ | Km ([1]; listed as 7F10): 5.3 ± 0.6 mM | Km [1]: 5.32 mM

B2: Lys77Met: B. badius PheDH single variant (protein, listed as Bacillus badius)
chain: SLVEKTSIIKDFTLFEKMSEHEQVVFCNDPATGLRAIIAIHDTTLGPALGGCRMQPYNSVEEALEDALRLSKGMTYMCAASDVDFGGGKAVIIGDPQKDKSPELFRAFGQFVDSLGGRFYTGTDMGTNMEDFIHAMKETNCIVGVPEAYGGGGDSSIPTAMGVLYGIKATNKMLFGKDDLGGVTYAIQGLGKVGYKVAEGLLEEGAHLFVTDINEQTLEAIQEKAKTTSGSVTVVASDEIYSQEADVFVPCAFGGVVNDETMKQFKVKAIAGSANNQLLTEDHGRHLADKGILYAPDYIVNSGGLIQVADELYEVNKERVLAKTKHIYDAILEVYQQAELDQITTMEAANRMCEQRMAARGRRNSFFTSSVKPKWDIRN
Deamination Activity 40 mM 1,3-DMBA, kcat [2]: 0.0033 ± 0.000 s⁻¹ | Amination Activity 40 mM MIBK, kcat [3]: 0.0009 ± 0.000 s⁻¹

B3: Asn276Val: B. badius PheDH single variant (protein, listed as Bacillus badius)
chain: SLVEKTSIIKDFTLFEKMSEHEQVVFCNDPATGLRAIIAIHDTTLGPALGGCRMQPYNSVEEALEDALRLSKGMTYKCAASDVDFGGGKAVIIGDPQKDKSPELFRAFGQFVDSLGGRFYTGTDMGTNMEDFIHAMKETNCIVGVPEAYGGGGDSSIPTAMGVLYGIKATNKMLFGKDDLGGVTYAIQGLGKVGYKVAEGLLEEGAHLFVTDINEQTLEAIQEKAKTTSGSVTVVASDEIYSQEADVFVPCAFGGVVNDETMKQFKVKAIAGSANVQLLTEDHGRHLADKGILYAPDYIVNSGGLIQVADELYEVNKERVLAKTKHIYDAILEVYQQAELDQITTMEAANRMCEQRMAARGRRNSFFTSSVKPKWDIRN
Deamination Activity 40 mM 1,3-DMBA, kcat [2]: 0.0016 ± 0.000 s⁻¹ | Amination Activity 40 mM MIBK, kcat [3]: n.m.

B4: K67M: LeuDH single variant, library 1 (protein, listed as Bacillus stearothermophilus)
chain: ELFQYMEKYDYEQVLFCQDKESGLKAIIVIHDTTLGPALGGTRMWMYNSEEEALEDALRLARGMTYMNAAAGLNLGGGKTVIIGDPRKDKNEAMFRAFGRFIQGLNGRYITAEDVGTTVADMDIIYQETDYVTGISPEFGSSGNPSPATAYGVYRGMKAAAKEAFGSDSLEGKVVAVQGVGNVAYHLCRHLHEEGAKLIVTDINKEAVARAVEEFGAKAVDPNDIYGVECDIFAPCALGGIINDQTIPQLKAKVIAGSADNQLKEPRHGDMIHEMGIVYAPDYVINAGGVINVADELYGYNRERAMKKIEQIYDNIEKVFAIAKRDNIPTYVAADRMAEERIETMRKARSQFLQNGHHILSRRRAR
activity in the oxidative deamination of racemic 1,3-DMBA [2]: 3.4 mU mg^−1 | Oxidative deamination specific activity [2]: 0.0034 U mg^−1 protein | activity for reductive amination ([3]; MIBK): 0.2 mU mg^−1 | Reductive amination specific activity ([3]; MIBK): 0.0002 U mg^−1 protein

B5: K67M, E113V: LeuDH-AmDH variant, SEQ ID NO:5 (protein)
chain: ELFQYMEKYDYEQVLFCQDKESGLKAIIVIHDTTLGPALGGTRMWMYNSEEEALEDALRLARGMTYMNAAAGLNLGGGKTVIIGDPRKDKNEAMFRAFGRFIQGLNGRYITAVDVGTTVADMDIIYQETDYVTGISPEFGSSGNPSPATAYGVYRGMKAAAKEAFGSDSLEGKVVAVQGVGNVAYHLCRHLHEEGAKLIVTDINKEAVARAVEEFGAKAVDPNDIYGVECDIFAPCALGGIINDQTIPQLKAKVIAGSADNQLKEPRHGDMIHEMGIVYAPDYVINAGGVINVADELYGYNRERAMKKIEQIYDNIEKVFAIAKRDNIPTYVAADRMAEERIETMRKARSQFLQNGHHILSRRRAR
Km [2, 5]: 48 mM | Oxidative deamination specific activity [2]: 0.65 U mg^−1 protein | Reductive amination specific activity ([3]; MIBK): 0.015 U mg^−1 protein

B6: K67M/E113V/N261V/V290C: LeuDH-AmDH variant, SEQ ID NO:8, library 10 (protein)
chain: ELFQYMEKYDYEQVLFCQDKESGLKAIIVIHDTTLGPALGGTRMWMYNSEEEALEDALRLARGMTYMNAAAGLNLGGGKTVIIGDPRKDKNEAMFRAFGRFIQGLNGRYITAVDVGTTVADMDIIYQETDYVTGISPEFGSSGNPSPATAYGVYRGMKAAAKEAFGSDSLEGKVVAVQGVGNVAYHLCRHLHEEGAKLIVTDINKEAVARAVEEFGAKAVDPNDIYGVECDIFAPCALGGIINDQTIPQLKAKVIAGSADVQLKEPRHGDMIHEMGIVYAPDYVINAGGCINVADELYGYNRERAMKKIEQIYDNIEKVFAIAKRDNIPTYVAADRMAEERIETMRKARSQFLQNGHHILSRRRAR
Specific activity, (R/S)-MBA ([2]; 40 mM racemic, 20 mM of each enantiomer): 484.0 mU mg^−1 protein | Km [2, 5]: 30.9 mM | Oxidative deamination specific activity [2]: 2.81 U mg^−1 protein | Deamination of 1,3-DMBA Vmax [2, 6]: 2.894 ± 0.44 | Km [2, 7]: 33.1 ± 13 mM | Specific activity, acetophenone ([3]; 20 mM substrate): 3.5 mU mg^−1 protein | Specific activity, cyclohexanone ([3]; 20 mM substrate): 18.8 mU mg^−1 protein | Specific activity, ethyl pyruvate ([3]; 20 mM substrate): 19.8 mU mg^−1 protein | Specific activity, ethyl-3-oxohexanoate ([3]; 20 mM substrate): 6.4 mU mg^−1 protein | Specific activity, methyl acetoacetate ([3]; 20 mM substrate): 4.5 mU mg^−1 protein | Km [3, 8]: 10.3 mM | Reductive amination specific activity ([3]; MIBK): 0.089 U mg^−1 protein | Amination of MIBK Vmax [3, 6]: 0.084 ± 0.01 | Km [3, 9]: 21 ± 8.5 mM | Specific activity, (R)-MBA [4]: 476.5 mU mg^−1 protein | Specific activity, (S)-MBA [4]: 5.0 mU mg^−1 protein

B7: K67M/E113V/N261C/V290C: LeuDH-AmDH variant, SEQ ID NO:9, library 10 (protein)
chain: ELFQYMEKYDYEQVLFCQDKESGLKAIIVIHDTTLGPALGGTRMWMYNSEEEALEDALRLARGMTYMNAAAGLNLGGGKTVIIGDPRKDKNEAMFRAFGRFIQGLNGRYITAVDVGTTVADMDIIYQETDYVTGISPEFGSSGNPSPATAYGVYRGMKAAAKEAFGSDSLEGKVVAVQGVGNVAYHLCRHLHEEGAKLIVTDINKEAVARAVEEFGAKAVDPNDIYGVECDIFAPCALGGIINDQTIPQLKAKVIAGSADCQLKEPRHGDMIHEMGIVYAPDYVINAGGCINVADELYGYNRERAMKKIEQIYDNIEKVFAIAKRDNIPTYVAADRMAEERIETMRKARSQFLQNGHHILSRRRAR
Km [2, 5]: 14.8 mM | Oxidative deamination specific activity [2]: 1.76 U mg^−1 protein | Deamination of 1,3-DMBA Vmax [2, 6]: 1.76 ± 0.20 | Km [2, 7]: 14.8 ± 6.1 mM | Km [3, 8]: 21.6 mM | Reductive amination specific activity ([3]; MIBK): 0.236 U mg^−1 protein | Amination of MIBK Vmax [3, 6]: 0.236 ± 0.04 | Km [3, 9]: 21.6 ± 11.5 mM
